This passage reports Kd results from PMC10499821.

The assay has as its target Nsp5 (SARS-CoV-2) (UniProt P0DTD1). The assay is described as follows: fluorescence polarisation. (In general: Polarisation of emitted light reports the rotation of a fluorescent probe.)

Broadly, the Kd is the constant that tells how readily two partners part at equilibrium. Turning to TVKFHARTGMIESNR [DLG3_(577–592)], the Kd worked out at 7 µM. Next, GASSRLQASLSSSDV [SHROOM2_(403–417)]: 280 µM.
